Test results taken from the RNAGym collection of RNA variant scans (doi:10.1073/pnas.2313332121).

B1: TPR t1 (parent)
chain: GACCAAUCUGCCCUCAGAGCUCGAGAACAUCUUCGGAUGCAGAGGAGGCAGGCUUCGGUGGCGCGAUAGCGCCAACGUCCUCAACCUCCAAUGCAUCCCACCACAUGAUGAUGCCUGAAGAGCCUUGGUUUUUUG

Variants of: B1
Experiment: polymerase ribozyme fitness, log enrichment relative to wild type (log ratio); higher = more active; in vitro selection for triplet polymerase activity
Summary of the method: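 Mutant libraries of both subunits of a heterodimeric triplet polymerase ribozyme were PCR-built, transcribed, and selected once in triplicate, with frozen incubation at −7 °C and capture of gel-excised extended constructs on streptavidin beads before RT-PCR. Illumina sequencing of input and output libraries was filtered to genotypes with ≥10 input reads and ≥1 read per output. Fitness is the logarithm of genotype enrichment over wild-type enrichment, using inverse-variance-weighted replicate averages. The logarithm is base 2.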

Variant | polymerase ribozyme fitness (log ratio)
G77A G120U | -0.0426
A74U G120U | -0.788
C76U A111U | -3.86
C72U C85G | -2.48
G77C G117U | -2.55
C72G U132A | -0.151
C72U G120C C123G | 0.164
C73U A100U | -0.959
C73U C88U U92G | -2.64
C72U A84U C101A C115U G127A G128C | -6.94
C72U C97U | -1.45
C73A U92G | -2.07
C73U A90G A121C | 2.05
U78C G93A U112C G128U | -1.32
C73A A108G U116A C123U | -5.63
C73U C82A C124G | 1.47
C72G A83G C115A | -4.27
A74U U78C G120C | 0.366
C73G A111U | -4.08
C73U C79G | -2.02
C73U A91G C104U U112A G113U | -0.254

Variant | polymerase ribozyme fitness (log ratio)
A74U U78G U131G | -1.29
C72U C79A U106C | -1.81
C73A C79U C86A C115U | -3.26
C76G C98A | -4.09
U78G C114G U129A | -4.16
U78C A83C C94U G110A A118U G120U U132C | -2.85
C73A G113A U131A | -1.4
C73U A84U | -0.363
A75G C97U U131A | -0.00214
U78C C85G C124A | -0.513
U78C U87G U126A | -2.18
C73U A84G A90U A103G U109A C124A | -4.51
C73G A105U | -2.27
C73U G117A G120U | -2.36
C73A U87C U96C A111G | -0.596
C72G C97A | -5.43
C72U G117A U133A | -1.1
G77C U96A | -1.58
C73U C79G A84G U96C | -2.54
C73U U78C U96A | -1.03
C73G C102U A119G | -1.29

Variant | polymerase ribozyme fitness (log ratio)
C72U U133A | -0.682
C72G C102A | -2.79
C73G C101U U112C G117C | -2.53
C73U U133A | 0.4
C79A C123U | 0.304
U78A A95C G113U U125G | -4.39
G77A A84U U112G | -2.45
C73G A83C C101G C115U U116A | -5.12
C72G C80U | -0.861
C76U C82U C102U G117A | -4.4
U78C A111G C124A | 1.04
C73A G120U A121C | 0.179
C76U C104A | -1.92
C72G C85G A100C A121C | -1.55
C76U G135U | -1.08
G77A U87A A111U G122U | -4.12
C72U C76U | 0.954
C73G G117A A121U | -0.326
C73U C124G | 0.939
A75G U129A | -0.79
U78G C89A | -3.29

Variant | polymerase ribozyme fitness (log ratio)
C76U C86U A91U | -3.49
C72G U78G G110U | -2.55
U78C U96G | -0.935
C72U U96G | -1.42
G77U C82U G107A U112C | -5.86
C73A G93A U131G | -0.498
C72G C73U G128U | -3.92
C72G U96A | -2.18
C72G U96C | -1.25
C73U A105C A119U G128A | -3.98
C73A C88A C89A U112G A119C | -2.76
C76A G113C | -3.53
C73U U81A C98A G113A G117U U131G | -5.03
C76U U125A | -0.353
C73G G120C G128U | -1.34
U78A U96C | -0.338
C72G U109A C123A | -5.46
U78C A83U C115A | -0.234
C76G A90C | -0.998
C73U U92C | -1.83
